First the molecules themselves.
T1: C. elegans GluClβWT subunit (GLC-2) (C. elegans) (UniProt Q17328)
T1 sequence: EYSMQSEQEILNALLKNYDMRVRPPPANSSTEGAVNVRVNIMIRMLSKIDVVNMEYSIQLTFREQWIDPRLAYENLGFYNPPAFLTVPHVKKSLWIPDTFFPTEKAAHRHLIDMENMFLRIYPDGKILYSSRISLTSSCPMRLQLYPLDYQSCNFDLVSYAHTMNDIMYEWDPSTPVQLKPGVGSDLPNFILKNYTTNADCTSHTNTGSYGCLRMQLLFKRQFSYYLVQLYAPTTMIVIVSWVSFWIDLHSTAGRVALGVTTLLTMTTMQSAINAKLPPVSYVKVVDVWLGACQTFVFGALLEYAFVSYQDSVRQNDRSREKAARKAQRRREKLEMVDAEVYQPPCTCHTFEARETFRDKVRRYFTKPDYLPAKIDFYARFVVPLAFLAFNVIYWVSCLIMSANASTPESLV

B1: C. elegans GluClα (GLC-1) subunit, P192E (receptor)
chain: QQARTKSQDIFEDDNDNGTTTLESLARLTSPIHIPIEQPQTSDSKILAHLFTSGYDFRVRPPTDNGGPVVVSVNMLLRTISKIDVVNMEYSAQLTLRESWIDKRLSYGVKGDGQPDFVILTVGHQIWMPDTFFPNEKQAYKHTIDKPNVLIRIHNDGTVLYSVRISLVLSCEMYLQYYPMDVQQCSIDLASYAYTTKDIEYLWKEHSPLQLKVGLSSSLPSFQLTNTSTTYCTSVTNTGIYSCLRTTIQLKREFSFYLLQLYIPSCMLVIVSWVSFWFDRTAIPARVTLGVTTLLTMTAQSAGINSQLPPVSYIKAIDVWIGACMTFIFCALLEFALVNHIANKQGVERKARTEREKAEIPLLQNLHNDVPTKVFNQEEKVRTVPLNRRQMNSFLNLLETKTEWNDISKRVDLISRALFPVLFFVFNILYWSRFGQQNVLF
B2: C. elegans GluClα (GLC-1) subunit, F276W (receptor)
chain: QQARTKSQDIFEDDNDNGTTTLESLARLTSPIHIPIEQPQTSDSKILAHLFTSGYDFRVRPPTDNGGPVVVSVNMLLRTISKIDVVNMEYSAQLTLRESWIDKRLSYGVKGDGQPDFVILTVGHQIWMPDTFFPNEKQAYKHTIDKPNVLIRIHNDGTVLYSVRISLVLSCPMYLQYYPMDVQQCSIDLASYAYTTKDIEYLWKEHSPLQLKVGLSSSLPSFQLTNTSTTYCTSVTNTGIYSCLRTTIQLKREFSWYLLQLYIPSCMLVIVSWVSFWFDRTAIPARVTLGVTTLLTMTAQSAGINSQLPPVSYIKAIDVWIGACMTFIFCALLEFALVNHIANKQGVERKARTEREKAEIPLLQNLHNDVPTKVFNQEEKVRTVPLNRRQMNSFLNLLETKTEWNDISKRVDLISRALFPVLFFVFNILYWSRFGQQNVLF
B3: C. elegans GluClα (GLC-1) subunit, F276A (receptor)
chain: QQARTKSQDIFEDDNDNGTTTLESLARLTSPIHIPIEQPQTSDSKILAHLFTSGYDFRVRPPTDNGGPVVVSVNMLLRTISKIDVVNMEYSAQLTLRESWIDKRLSYGVKGDGQPDFVILTVGHQIWMPDTFFPNEKQAYKHTIDKPNVLIRIHNDGTVLYSVRISLVLSCPMYLQYYPMDVQQCSIDLASYAYTTKDIEYLWKEHSPLQLKVGLSSSLPSFQLTNTSTTYCTSVTNTGIYSCLRTTIQLKREFSAYLLQLYIPSCMLVIVSWVSFWFDRTAIPARVTLGVTTLLTMTAQSAGINSQLPPVSYIKAIDVWIGACMTFIFCALLEFALVNHIANKQGVERKARTEREKAEIPLLQNLHNDVPTKVFNQEEKVRTVPLNRRQMNSFLNLLETKTEWNDISKRVDLISRALFPVLFFVFNILYWSRFGQQNVLF
B4: C. elegans GluClα (GLC-1) subunit, Y194R (receptor)
chain: QQARTKSQDIFEDDNDNGTTTLESLARLTSPIHIPIEQPQTSDSKILAHLFTSGYDFRVRPPTDNGGPVVVSVNMLLRTISKIDVVNMEYSAQLTLRESWIDKRLSYGVKGDGQPDFVILTVGHQIWMPDTFFPNEKQAYKHTIDKPNVLIRIHNDGTVLYSVRISLVLSCPMRLQYYPMDVQQCSIDLASYAYTTKDIEYLWKEHSPLQLKVGLSSSLPSFQLTNTSTTYCTSVTNTGIYSCLRTTIQLKREFSFYLLQLYIPSCMLVIVSWVSFWFDRTAIPARVTLGVTTLLTMTAQSAGINSQLPPVSYIKAIDVWIGACMTFIFCALLEFALVNHIANKQGVERKARTEREKAEIPLLQNLHNDVPTKVFNQEEKVRTVPLNRRQMNSFLNLLETKTEWNDISKRVDLISRALFPVLFFVFNILYWSRFGQQNVLF
B5: C. elegans GluClα (GLC-1) subunit, E273R (receptor)
chain: QQARTKSQDIFEDDNDNGTTTLESLARLTSPIHIPIEQPQTSDSKILAHLFTSGYDFRVRPPTDNGGPVVVSVNMLLRTISKIDVVNMEYSAQLTLRESWIDKRLSYGVKGDGQPDFVILTVGHQIWMPDTFFPNEKQAYKHTIDKPNVLIRIHNDGTVLYSVRISLVLSCPMYLQYYPMDVQQCSIDLASYAYTTKDIEYLWKEHSPLQLKVGLSSSLPSFQLTNTSTTYCTSVTNTGIYSCLRTTIQLKRRFSFYLLQLYIPSCMLVIVSWVSFWFDRTAIPARVTLGVTTLLTMTAQSAGINSQLPPVSYIKAIDVWIGACMTFIFCALLEFALVNHIANKQGVERKARTEREKAEIPLLQNLHNDVPTKVFNQEEKVRTVPLNRRQMNSFLNLLETKTEWNDISKRVDLISRALFPVLFFVFNILYWSRFGQQNVLF
B6: C. elegans GluClα (GLC-1) subunit, P192M (receptor)
chain: QQARTKSQDIFEDDNDNGTTTLESLARLTSPIHIPIEQPQTSDSKILAHLFTSGYDFRVRPPTDNGGPVVVSVNMLLRTISKIDVVNMEYSAQLTLRESWIDKRLSYGVKGDGQPDFVILTVGHQIWMPDTFFPNEKQAYKHTIDKPNVLIRIHNDGTVLYSVRISLVLSCMMYLQYYPMDVQQCSIDLASYAYTTKDIEYLWKEHSPLQLKVGLSSSLPSFQLTNTSTTYCTSVTNTGIYSCLRTTIQLKREFSFYLLQLYIPSCMLVIVSWVSFWFDRTAIPARVTLGVTTLLTMTAQSAGINSQLPPVSYIKAIDVWIGACMTFIFCALLEFALVNHIANKQGVERKARTEREKAEIPLLQNLHNDVPTKVFNQEEKVRTVPLNRRQMNSFLNLLETKTEWNDISKRVDLISRALFPVLFFVFNILYWSRFGQQNVLF
B7: C. elegans GluClα (GLC-1) subunit, P192Y (receptor)
chain: QQARTKSQDIFEDDNDNGTTTLESLARLTSPIHIPIEQPQTSDSKILAHLFTSGYDFRVRPPTDNGGPVVVSVNMLLRTISKIDVVNMEYSAQLTLRESWIDKRLSYGVKGDGQPDFVILTVGHQIWMPDTFFPNEKQAYKHTIDKPNVLIRIHNDGTVLYSVRISLVLSCYMYLQYYPMDVQQCSIDLASYAYTTKDIEYLWKEHSPLQLKVGLSSSLPSFQLTNTSTTYCTSVTNTGIYSCLRTTIQLKREFSFYLLQLYIPSCMLVIVSWVSFWFDRTAIPARVTLGVTTLLTMTAQSAGINSQLPPVSYIKAIDVWIGACMTFIFCALLEFALVNHIANKQGVERKARTEREKAEIPLLQNLHNDVPTKVFNQEEKVRTVPLNRRQMNSFLNLLETKTEWNDISKRVDLISRALFPVLFFVFNILYWSRFGQQNVLF
B8: C. elegans GluClα (GLC-1) subunit, SSS→GSD (positions 236–238) (receptor)
chain: QQARTKSQDIFEDDNDNGTTTLESLARLTSPIHIPIEQPQTSDSKILAHLFTSGYDFRVRPPTDNGGPVVVSVNMLLRTISKIDVVNMEYSAQLTLRESWIDKRLSYGVKGDGQPDFVILTVGHQIWMPDTFFPNEKQAYKHTIDKPNVLIRIHNDGTVLYSVRISLVLSCPMYLQYYPMDVQQCSIDLASYAYTTKDIEYLWKEHSPLQLKVGLGSDLPSFQLTNTSTTYCTSVTNTGIYSCLRTTIQLKREFSFYLLQLYIPSCMLVIVSWVSFWFDRTAIPARVTLGVTTLLTMTAQSAGINSQLPPVSYIKAIDVWIGACMTFIFCALLEFALVNHIANKQGVERKARTEREKAEIPLLQNLHNDVPTKVFNQEEKVRTVPLNRRQMNSFLNLLETKTEWNDISKRVDLISRALFPVLFFVFNILYWSRFGQQNVLF

This experiment has as its target T1, C. elegans GluClβWT subunit (GLC-2) (C. elegans).
With B1, the whole-cell current amplitude in response to the Glu-EC50 concentration, CHO cells co-transfected with both subunits, +60 mV amounted to 3.1 nA.

B2 registered a whole-cell current amplitude in response to the Glu-EC50 concentration, CHO cells co-transfected with both subunits, +60 mV of 3 nA. As for B3, the whole-cell current amplitude in response to the Glu-EC50 concentration, CHO cells co-transfected with both subunits, +60 mV stood at 3.1 nA. For B4 the value was 5.9 nA; for B5, 2.2 nA; for B6, 3.2 nA. For B7 the value was 2.1 nA. For B8 the value was 2.9 nA.

The values are drawn from paper PMC5382172 (Frontiers in Molecular Neuroscience, 2017).
